According to patent publication US7569579B2, “Cyclopropyl compounds as ccr5 antagonists” (SmithKline Beecham Corporation, priority 2002, dated 2009):

Molecular target: T1, human CCR5 chemokine receptor (Homo sapiens, UniProt P51681)
T1 construct: host or cells: Chinese Hamster Ovary (CHO) cells; membranes prepared from the cell pellet
Assay: CC-Chemokine Receptor-5 binding by scintillation proximity assay (CCR5 SPA), displacement of 125I-MIP1α
Conditions: standard compound, 14-point concentration-response curve in triplicate
Protocol: CC-Chemokine Receptor-5 Binding by Scintillation Proximity Assay (CCR5 SPA) Scintillation Proximity Assay for the Human CC-Chemokine Receptor, CCR-5
This protocol describes a high-throughput screen using SPA binding to identify compounds that inhibit binding of ^125I-MIP1α to the human CCR5 chemokine receptor.
Human CCR5 receptors were expressed in Chinese Hamster Ovary (CHO) cells, registration # 12025. Cells were grown in suspension and a 50 to 80 ml CCR5 cell pellet was prepared. […]
The saturation curve binding experiment is performed by adding varying amounts of [^125I]MIP1α (0-8.5 nM to membranes and beads in concentrations chosen from the optimal protein/bead ratio. The data is analyzed using a non-linear curve-fitting program. The Kd and Bmax are derived from the curve. […]

T1 sequence (P51681 whole entry): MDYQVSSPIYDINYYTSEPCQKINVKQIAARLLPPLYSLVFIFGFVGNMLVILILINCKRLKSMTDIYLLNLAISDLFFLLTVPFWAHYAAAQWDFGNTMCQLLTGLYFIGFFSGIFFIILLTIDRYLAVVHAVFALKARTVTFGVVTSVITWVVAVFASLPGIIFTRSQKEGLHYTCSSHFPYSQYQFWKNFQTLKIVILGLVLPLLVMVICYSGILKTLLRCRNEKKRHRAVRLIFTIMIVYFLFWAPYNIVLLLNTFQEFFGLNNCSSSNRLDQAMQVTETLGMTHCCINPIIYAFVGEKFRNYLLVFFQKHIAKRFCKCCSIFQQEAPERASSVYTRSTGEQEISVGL

average historical pKi: 7.6
Substance: MIP1α: standard compound of the CCR5 SPA; natural chemokine ligand of CCR5 (Peprotech)
